From publication doi:10.1101/2022.12.06.519258 (bioRxiv, 2022)

Experiments:
[1] = molecular target: human KRAS^G12V (residues 1-169) (human) (UniProt P01116); experiment: stopped-flow fluorescence kinetics
[2] = molecular target: human SOS1 (residues 564-1049), SOS1^cat (Homo sapiens, UniProt Q07889, labelled with Alexa488 for flow cytometry (SOS1-488)); experiment: BLI

fold decrease of KD1 with Nb22 against SOS1 alone [1] [fold]	fold increase of k1 (kon) with excess Nb22 against SOS1 alone [1] [fold]	kon [1] [M⁻¹ s⁻¹]	ratio of k-1 (koff) with Nb14 to SOS1 alone [1] [fold]	Kd [2] [nM]	Molecule
3.1	4	4.2e+06	0.3	–	human SOS1 (residues 564-1049), SOS1^cat (from UniProt Q07889 564-1049) (domain or fragment)
–	–	–	–	70 ± 10	Nanobody Nb77 (VHH) VHH: QVQLVESGGGLVQPGGSLRLSCAASRSISSINIMGWYRQAPGKERESVASHTRDGSTDYADSVKGRFTISRDNAKNTVYLQMNSLKPEDTAVYYCTTLTGFPRIRSWGQGTQVTVSS
